{"source": "paper PMC4882459", "key": {"[1]": {"target": "Biotinylated C-reactive protein (human) (UniProt P02741)", "sequence (P02741 19-224)": "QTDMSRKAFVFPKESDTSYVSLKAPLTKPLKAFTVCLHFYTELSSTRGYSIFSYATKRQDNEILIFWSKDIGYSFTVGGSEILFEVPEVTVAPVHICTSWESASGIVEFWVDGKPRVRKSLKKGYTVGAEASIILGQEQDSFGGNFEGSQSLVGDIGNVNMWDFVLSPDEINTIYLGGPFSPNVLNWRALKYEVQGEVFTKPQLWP", "test": "SPR; Biacore 3000; biotinylated CRP or SAP captured to 200 RU on streptavidin on a CM5 chip; ES-62 flowed at 30 ul/min in HBS pH 7.4 with 1 mM CaCl2 and 0.005% P20; regeneration with 3 mM EDTA; ka and kd calculated separately"}, "[2]": {"target": "ES-62 (Acanthocheilonema viteae)", "test": "SEC; HPLC on a G4000SW column in HBSC buffer (1 mM CaCl2); ES-62 injected, with or without CRP at 20 ug/ml in the column buffer, or with EDTA"}}, "data": [{"substance": "ES-62 (natural protein)", "values": [{"measurement": "koff", "setting": "[1]", "result": "0.0013 to 0.0014", "unit": "s⁻¹"}, {"measurement": "kon", "setting": "[1]", "result": "100000 to 1e+06", "unit": "M⁻¹ s⁻¹"}, {"measurement": "stoichiometry N", "setting": "[2]", "result": 4}]}]}
